This is an account of results in patent publication US20260049151A1 (SHENGHE CHINA BIOPHARMACEUTICAL, published 2026).

Sequences and labels used below:
B1: Antibody J1 (bispecific antibody, human IgG1, kappa)
light: DIQMTQSPSSLSASLGDRVTISCSASQGISNYLNWYQQKPDGTVKLLIYYTSTLHSGVPSRFSGSGSGTDYTLTISSLQPEDIATYYCQQYSKLPWTFGGGTKLEIKRTVAAPSVFIFPPSDEQLKSGTASVVCLLNNFYPREAKVQWKVDNALQSGNSQESVTEQDSKDSTYSLSSTLTLSKADYEKHKVYACEVTHQGLSSPVTKSFNRGEC
heavy: not shown
notes: IgG1 subtype; full-length 4-1BB antibody with TNFR2 VHH at the C-terminus of the heavy chains
B2: Antibody M1 (bispecific antibody, human IgG1, kappa)
light: B1 light
heavy: not shown
notes: IgG1 subtype; full-length 4-1BB antibody with TNFR2 VHH at the N-terminus of the heavy chains
B3: Antibody H (bispecific antibody, human IgG1, kappa)
light: QVQLQESGPGLVKPSETLSLTCTVSGSSLTSYGVHWVRQPPGKCLEGLGVIWPGGSTNYNSALMSRVTISKDNSKSQVSLKMSSLTAADTAVYYCARVTGTWYFDVWGQGTTVTVSSGGGGSGGGGSGGGGSDIQMTQSPSSLSASLGDRVTISCSASQGISNYLNWYQQKPDGTVKLLIYYTSTLHSGVPSRFSGSGSGTDYTLTISSLQPEDIATYYCQQYSKLPWTFGCGTKLEIKGGGGSGGGGSGGGGSDIVMTQSPATLSVSPGERATLSCKASQNVGSNVDWYQQKPGQSPRVLIYKASIRYTGIPARFSGSGSGTEFTLTISILQSEDFAVYFCMQSKSYPITFGQGTKLEIKRTVAAPSVFIFPPSDEQLKSGTASVVCLLNNFYPREAKVQWKVDNALQSGNSQESVTEQDSKDSTYSLSSTLTLSKADYEKHKVYACEVTHQGLSSPVTKSFNRGEC
heavy: not shown
notes: IgG1 subtype; full-length TNFR2 antibody with 4-1BB scFv at the N-terminus of the light chains
B4: Antibody E1 (bispecific antibody, human IgG1, kappa)
light: DIVMTQSPATLSVSPGERATLSCKASQNVGSNVDWYQQKPGQSPRVLIYKASIRYTGIPARFSGSGSGTEFTLTISILQSEDFAVYFCMQSKSYPITFGQGTKLEIKRTVAAPSVFIFPPSDEQLKSGTASVVCLLNNFYPREAKVQWKVDNALQSGNSQESVTEQDSKDSTYSLSSTLTLSKADYEKHKVYACEVTHQGLSSPVTKSFNRGEC
heavy: not shown
notes: IgG1 subtype; full-length TNFR2 antibody with 4-1BB scFv at the C-terminus of the heavy chains

One test concerns the target T1, Human-TNFR2-His (human, UniProt P20333 23-257).
T1 construct: Bought protein; also called human TNFR2 protein; TNFR2 protein; not shown: His tag
T1 sequence (looked up): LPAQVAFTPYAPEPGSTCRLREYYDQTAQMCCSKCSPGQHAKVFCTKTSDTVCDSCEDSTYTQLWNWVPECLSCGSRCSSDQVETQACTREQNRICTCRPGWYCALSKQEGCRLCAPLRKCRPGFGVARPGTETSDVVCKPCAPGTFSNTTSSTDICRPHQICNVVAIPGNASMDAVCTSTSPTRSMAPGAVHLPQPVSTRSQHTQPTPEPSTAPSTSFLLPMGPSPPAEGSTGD
Description: BLI, antibody on AHC sensor, 100 nM TNFR2-His in solution. As to the method: The AHC sensor was soaked in 0.02% PBST (0.02% Tween 20, pH 7.4, 1×PBS) as a buffer for 600 s to remove the sucrose covering the sensor surface. The AHC sensor was equilibrated with 0.02% PBST (0.02% Tween 20, pH 7.4, 1×PBS) as a buffer for 60 s, the antibody in the sample plate was solidified for 300 s, and the secondary equilibration buffer was used for 180 s. 100 nM human-TNFR2-His (manufacturer: SINO, CAT: 10417-H08H, LOT: LC15NO0412) protein was bound to the antibody for 300 s and then dissociated for 600 s. After dissociation, 10 mM glycine (pH 2.0) was used as a regeneration buffer for 30 s. The sensor was regenerated with 10 mM glycine (pH 2.0).
Background: In BLI a coated tip is dipped into the sample, and binding shifts an interference pattern.
Molecule B1 came in with a Kd of 1.82 nM, a koff of 0.000394 s⁻¹ and a kon of 217000 M⁻¹ s⁻¹.

B2 had a Kd of 1.28 nM, a koff of 0.000394 s⁻¹ and a kon of 308000 M⁻¹ s⁻¹.

In turn, B3 displayed a Kd of 0.241 nM, a koff of 6.64e-05 s⁻¹ and a kon of 276000 M⁻¹ s⁻¹.

The molecule B4 returned a Kd of 0.207 nM, a koff of 8.04e-05 s⁻¹ and a kon of 389000 M⁻¹ s⁻¹.

The target of the next test is T2, Human 4-1BB Fc (human, UniProt Q07011 24-186).
T2 construct: same catalogue and lot number as Human 4-1BB His; not shown: Fc
T2 sequence (Q07011 24-186 limits assumed): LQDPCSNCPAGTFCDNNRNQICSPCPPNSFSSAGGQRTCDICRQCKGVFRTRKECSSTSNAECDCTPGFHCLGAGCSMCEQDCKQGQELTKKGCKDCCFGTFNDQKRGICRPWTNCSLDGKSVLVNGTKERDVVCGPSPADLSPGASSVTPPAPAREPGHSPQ
Description: bridging ELISA: Human 4-1BB Fc coated (0.3 ug/mL), antibody titrated, then Human-TNFR2-His (0.3 ug/mL), HRP anti-His detection (Example 4). On the technique in general: An ELISA detects its analyte on a solid surface through an enzyme-linked reagent.
B1: the “EC50 (read off the curve)” value is about 0.2 nM.

On to B2, for which the “EC50 (read off the curve)” value was about 0.2 nM.

As to B3, the “EC50 (read off the curve)” value is about 0.3 nM.

Consider B4, for which the “EC50 (read off the curve)” value was about 0.2 nM.

The target in the next test is T3, Human TNFR2 mFc (human, UniProt P20333 23-257).
T3 construct: Bought protein; not shown: mFc
T3 sequence (looked up): T1 sequence (looked up)
Briefly: bridging ELISA: Human TNFR2 mFc coated (0.3 ug/mL), antibody titrated, then Human 4-1BB His (0.3 ug/mL), HRP anti-His detection (Example 5).
Take B1: the “EC50 (read off the curve)” value was about 0.07 nM.

As to B2, the “EC50 (read off the curve)” value was about 0.09 nM.

On to B3, for which the “EC50 (read off the curve)” value is about 0.07 nM.

As to B4, the “EC50 (read off the curve)” value is about 0.07 nM.

By Kd is commonly meant a measure of binding affinity in units of concentration. A low value points to a tighter complex. By koff is commonly meant the first-order rate constant of dissociation. A high value points to a short-lived complex. For orientation: kon means the rate constant with which the complex forms. A high value points to faster complex formation. By EC50 (read off the curve) is commonly meant the concentration needed to bring the measured effect to its halfway point. Read a high EC50 (read off the curve) as a less potent agent.
